Measurements reported in PMC12042792, “Discovery of two novel cutinases from a gut yeast of plastic-eating mealworm for polyester depolymerization” (Applied and Environmental Microbiology, 2025).

Columns and labels:
Assay in all cases: purified protein
Format in all cases: biochemical, Sakaguchia sp.
[1] = substrate: CC(=O)Oc1ccc([N+](=O)[O-])cc1
[2] = substrate: CCCC(=O)Oc1ccc([N+](=O)[O-])cc1
[3] = substrate: CCCCCC(=O)Oc1ccc([N+](=O)[O-])cc1
[4] = substrate: CCCCCCCC(=O)Oc1ccc([N+](=O)[O-])cc1
[5] = substrate: CCCCCCCCCC(=O)Oc1ccc([N+](=O)[O-])cc1
[6] = substrate: CCCCCCCCCCCC(=O)Oc1ccc([N+](=O)[O-])cc1
[7] = substrate: CCCCCCCCCCCCCC(=O)Oc1ccc([N+](=O)[O-])cc1
[8] = substrate: CCCCCCCCCCCCCCCC(=O)Oc1ccc([N+](=O)[O-])cc1
[9] = 50 mM Tris-HCl pH 7.5, optimal temperature (35 °C)
[10] = 50 mM Tris-HCl pH 7.5, optimal temperature (45 °C)

B1: SiCut1 (Sakaguchia sp.) (protein)
chain: AAIAERQSSACAPLELYHAAGTSESGLGTVGRAFQTALPREVQGATVSPLNYNTNAEYSSTVTAGAQTFQQLLTSRAAACPNTKFVLSGYSKGALVVHKVTLPSAVQSKVVAITVFGDPQAGQFGATTVPINNKACFFSFCNRGDTFCDRGGNFAAHLAYATDGSVTTASRNIAGCYRA
notes: no tag mentioned; diafiltered culture supernatant
[1]; [9]
  Km: 9.12 ± 0.04 µM
  kcat: 0.3212 ± 0.00267 s⁻¹
  kcat/Km: 35200 ± 3000 M⁻¹ s⁻¹
[2]; [9]
  Km: 1.73 ± 0.99 µM
  kcat: 0.796 ± 0.00367 s⁻¹
  kcat/Km: 459800 ± 2330 M⁻¹ s⁻¹
[3]; [9]
  Km: 0.66 ± 2.77 µM
  kcat: 0.8588 ± 0.00717 s⁻¹
  kcat/Km: 1.305e+06 ± 1830 M⁻¹ s⁻¹
[4]; [9]
  Km: 2.01 ± 0.63 µM
  kcat: 1.002 ± 0.00267 s⁻¹
  kcat/Km: 501000 ± 1500 M⁻¹ s⁻¹
[5]; [9]
  Km: 7.57 ± 0.01 µM
  kcat: 0.672 ± 0.026 s⁻¹
  kcat/Km: 88800 ± 3170 M⁻¹ s⁻¹
[6]; [9]
  Km: 3.21 ± 0.63 µM
  kcat: 0.7233 ± 0.00283 s⁻¹
  kcat/Km: 225000 ± 500 M⁻¹ s⁻¹
[7]; [9]
  Km: 3.46 ± 0.02 µM
  kcat: 0.213 ± 0.00217 s⁻¹
  kcat/Km: 61700 ± 1330 M⁻¹ s⁻¹
[8]; [9]
  Km: 7.09 ± 0.27 µM
  kcat: 0.2155 ± 0.002 s⁻¹
  kcat/Km: 30300 ± 2170 M⁻¹ s⁻¹

B2: SiCut2 (Sakaguchia sp.) (protein)
chain: TAIGERQLGCAPLELFHAAGTSEVGQGIIGRAYQSALPRAVSGATVTPVIYSTIAEYFTTVRAGAQTMQRQLTSRAAACPNTKFVLSGYSKGALVVHEVKLPAAIQSKVVAVTLFGDPKNGQFGSSVVPINNKACFFSFCNRGDVFCDRGISLAAHLAYATDGSVTTAARNIAECFNA
notes: as for B1
[1]; [10]
  Km: 6.18 ± 0.49 µM
  kcat: 0.665 ± 0.07 s⁻¹
  kcat/Km: 108000 ± 11300 M⁻¹ s⁻¹
[2]; [10]
  Km: 2.82 ± 0.58 µM
  kcat: 1.13 ± 0.066 s⁻¹
  kcat/Km: 401000 ± 5000 M⁻¹ s⁻¹
[3]; [10]
  Km: 1.44 ± 1.51 µM
  kcat: 1.26 ± 0.0175 s⁻¹
  kcat/Km: 875000 ± 11700 M⁻¹ s⁻¹
[4]; [10]
  Km: 0.89 ± 0.12 µM
  kcat: 2.079 ± 0.0025 s⁻¹
  kcat/Km: 2.344e+06 ± 13800 M⁻¹ s⁻¹
[5]; [10]
  Km: 2.47 ± 0.09 µM
  kcat: 1.48 ± 0.0342 s⁻¹
  kcat/Km: 600700 ± 667 M⁻¹ s⁻¹
[6]; [10]
  Km: 2.22 ± 1.9 µM
  kcat: 0.983 ± 0.035 s⁻¹
  kcat/Km: 443000 ± 4330 M⁻¹ s⁻¹
[7]; [10]
  Km: 4.44 ± 0.5 µM
  kcat: 0.832 ± 0.0117 s⁻¹
  kcat/Km: 187000 ± 10000 M⁻¹ s⁻¹
[8]; [10]
  Km: 4.01 ± 1.3 µM
  kcat: 0.603 ± 0.0417 s⁻¹
  kcat/Km: 150000 ± 3830 M⁻¹ s⁻¹
